The source of these data is patent US6468985B1, “Retinoblastoma protein-interacting zinc finger proteins” (The Burnham Institute, priority 1994, dated 2002).

In one experiment the target is T1, wild-type Rb (Homo sapiens, UniProt P06400).
T1 construct: Wild-type (wt) full length Rb (A9); made in house; host or cells: in vitro transcription/translation
T1 sequence (P06400 1-928): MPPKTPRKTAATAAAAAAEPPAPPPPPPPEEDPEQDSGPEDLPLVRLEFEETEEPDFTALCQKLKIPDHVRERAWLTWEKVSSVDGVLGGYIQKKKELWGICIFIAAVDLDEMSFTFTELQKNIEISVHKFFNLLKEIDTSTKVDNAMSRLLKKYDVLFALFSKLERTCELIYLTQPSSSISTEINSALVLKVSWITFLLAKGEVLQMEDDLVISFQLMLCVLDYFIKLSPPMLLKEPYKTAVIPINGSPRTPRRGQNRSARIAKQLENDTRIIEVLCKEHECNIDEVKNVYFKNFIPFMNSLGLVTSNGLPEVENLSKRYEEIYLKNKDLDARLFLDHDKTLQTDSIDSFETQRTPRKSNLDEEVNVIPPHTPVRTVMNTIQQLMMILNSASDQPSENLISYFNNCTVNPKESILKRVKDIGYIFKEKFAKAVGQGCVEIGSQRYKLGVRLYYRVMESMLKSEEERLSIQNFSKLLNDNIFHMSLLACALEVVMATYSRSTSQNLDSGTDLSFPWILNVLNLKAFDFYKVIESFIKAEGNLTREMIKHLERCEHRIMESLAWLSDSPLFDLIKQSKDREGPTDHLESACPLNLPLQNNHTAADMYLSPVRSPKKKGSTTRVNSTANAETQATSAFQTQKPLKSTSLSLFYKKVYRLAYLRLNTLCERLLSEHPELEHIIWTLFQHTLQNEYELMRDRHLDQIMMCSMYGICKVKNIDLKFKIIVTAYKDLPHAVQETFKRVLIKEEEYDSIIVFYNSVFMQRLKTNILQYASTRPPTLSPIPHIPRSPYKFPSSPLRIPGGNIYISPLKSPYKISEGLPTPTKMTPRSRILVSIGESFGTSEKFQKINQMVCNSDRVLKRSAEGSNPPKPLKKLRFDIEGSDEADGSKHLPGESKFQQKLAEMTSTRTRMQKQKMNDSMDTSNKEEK
As to the kind of experiment: binding of GST-RIZ (245-573) to 35S-labeled Rb, immunoprecipitation with anti-RIZ antiserum. As for the experimental part:
The 56 kD Rb fragment that binds to RIZ is a C-terminal fragment containing the Rb pocket binding region and a C-terminal extension. To further define the portion of 56 kD Rb that binds to RIZ, several Rb mutant polypeptides were tested for binding to RIZ. Mutant and full length Rb were cloned and in vitro transcribed/translated as described previously (Huang et al., supra, 1990). H209 is a point mutation resulting in a single amino acid change in Rb that was identified in the small cell lung cancer H209 cell line (American Type Culture Collection (ATCC) #HTB 172). The various Rb forms were tested for binding to glutathionine S-transferase (GST) fused to a fragment of RIZ from amino acid position 245-573 (GST-RIZ (245-573)). This RIZ fragment contains all of the E1A motifs related to binding Rb and was constructed by cloning a Stu I-Hpa I RIZ fragment (nucleotide 795-3068) into vector pBSK+ to make pBSK+SH. An Eco RI fragment was removed from pBSK+SH and ligated into pGEX-KG to produce vector pKG7.1S containing GST-RIZ (245-573).
The binding between purified GST-RIZ (245-573) and the above radiolabeled Rb wild-type and deletion mutants was determined by immunoprecipitation with an anti-RIZ antiserum followed by SDS-PAGE and autoradiography. […]

The next experiment addresses T2, RIZ (Rattus norvegicus, UniProt Q63755).
T2 construct: made in house; host or cells: in vitro transcription/translation (rabbit reticulocyte lysate)
T2 sequence (Q63755 245-883): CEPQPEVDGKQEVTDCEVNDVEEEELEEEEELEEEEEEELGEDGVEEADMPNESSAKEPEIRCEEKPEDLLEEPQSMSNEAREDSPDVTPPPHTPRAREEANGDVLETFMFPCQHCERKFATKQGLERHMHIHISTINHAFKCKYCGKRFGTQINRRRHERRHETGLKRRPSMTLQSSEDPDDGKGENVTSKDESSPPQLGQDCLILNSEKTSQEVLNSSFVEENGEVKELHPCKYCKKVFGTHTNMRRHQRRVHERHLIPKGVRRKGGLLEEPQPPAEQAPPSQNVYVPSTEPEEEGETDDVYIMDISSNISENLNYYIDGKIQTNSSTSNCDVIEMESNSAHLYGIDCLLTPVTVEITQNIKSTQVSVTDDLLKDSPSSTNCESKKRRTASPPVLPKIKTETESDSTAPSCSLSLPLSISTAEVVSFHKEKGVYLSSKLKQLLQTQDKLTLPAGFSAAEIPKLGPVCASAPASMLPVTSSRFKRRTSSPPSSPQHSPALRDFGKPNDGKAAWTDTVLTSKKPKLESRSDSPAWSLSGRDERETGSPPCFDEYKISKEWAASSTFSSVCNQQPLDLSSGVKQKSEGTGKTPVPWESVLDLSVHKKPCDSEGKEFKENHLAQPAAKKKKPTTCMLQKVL
Briefly: binding of anti-RIZ antiserum / anti-ce1 antibody to RIZ and RIZ truncation mutants. As to conditions: addition of the immunogen.

B1: GST-RIZ (245-573): glutathionine S-transferase fused to RIZ fragment a.a. 245-573 containing zinc fingers 1-3 (protein)
chain: CEPQPEVDGKQEVTDCEVNDVEEEELEEEEELEEEEEEELGEDGVEEADMPNESSAKEPEIRCEEKPEDLLEEPQSMSNEAREDSPDVTPPPHTPRAREEANGDVLETFMFPCQHCERKFATKQGLERHMHIHISTINHAFKCKYCGKRFGTQINRRRHERRHETGLKRRPSMTLQSSEDPDDGKGENVTSKDESSPPQLGQDCLILNSEKTSQEVLNSSFVEENGEVKELHPCKYCKKVFGTHTNMRRHQRRVHERHLIPKGVRRKGGLLEEPQPPAEQAPPSQNVYVPSTEPEEEGETDDVYIMDISSNISENLNYYIDGKIQTNSS
modifications: left off: a dimerising Fc or GST
B1: in the experiment with wild-type Rb, the “binding to wild-type Rb” value is given as “showed binding”. The “inhibition of anti-RIZ antiserum binding to RIZ (245-883)” value with RIZ was “inhibited”.
